Legend:
[1] = type: physicochemical
Protocol: After the dilution of the purified radiotracers ([^68Ga]Ga-DOTA-[…]-DOTA-[…], [^205/206Bi]Bi-DOTA-[…], [^205/206Bi]Bi-DOTA-[…], [^177Lu]Lu-DOTA-[…], [^177Lu]Lu-DOTA-[…]) (50 μL, 1-3 MBq) with 450 μL water, 500 μL n-octanol was added to each sample. […] The activity of the samples from n-octanol phase (20 μL) and aqueous phase (20 μL) was analyzed with gamma counter. The procedure was performed in triplicate. For [^68Ga]Ga-DOTA-[…]-DOTA-[…], [^205/206Bi]Bi-DOTA-[…], [^205/206Bi]Bi-DOTA-[…], [^177Lu]Lu-DOTA-[…], and for [^177Lu]Lu-DOTA-[…] the logP values were -3.46, -2.12, -3.65, -2.32, -2.6, 1.26, respectively.

[2] = system: B16F10 tumor-bearing mice; assay: Ex vivo organ distribution in B16F10 tumor-bearing mice; parameters: species or system C57BL/6 mice; conditions: mouse, iv
Protocol: (§1) To accomplish post-imaging organ distribution investigations, 9.36 ± 0.67, 6.34 ± 1.07 and 2.39 ± 0.19 MBq of ^68Ga-labeled-^177Lu-labeled-and ^205/206Bi-labeled […]-based probes were iv. Injected, respectively, into the lateral tail vein of both the tumor-naive and the melanoma tumor-carrying experimental mice. Ninety-minutes ([^68Ga]Ga-DOTA-[…]-DOTA-[…]; [^205/206Bi]Bi-DOTA-[…]; [^205/206Bi]Bi-DOTA-[…]) and 24 h ([^177Lu]Lu-DOTA-[…]; [^177Lu]Lu-DOTA-[…]) post tracer administration, mice were sacrificed under Forane-induced inhalation anesthesia. Then, the tumor, the blood, and selected organs and tissues were removed, weighed wet and measured for radioactivity applying a calibrated gamma counter (Perkin-Elmer Packard 406 Cobra, Waltham, MA, USA). The counts per minute (CPM) figures for each sample were converted to percent of administered dose per gram of tissue (%ID/g).

[3] = in vivo; parameters: species or system C57BL/6 mice; conditions: C57BL/6, mouse, iv, total radioactivity
Protocol: At 9 ± 1 days post tumor implantation, at an average tumor bulk of approximately 120 mm^3, the tumor-naive and the B16F10 tumor-bearing mice were intravenously (iv.) injected with 9.36 ± 0.67 MBq of [^68Ga]Ga-DOTA-NAPamide or [^68Ga]Ga-DOTA-IPB-NAPamide via the lateral tail vein. After a 90-min-long tracer distribution time, the study mice were subjected to whole-body static PET acquisition (10 min scans at each bed position) under isoflurane-induced anesthesia (AbbVie, Budapest, Hungary; OGYI-T-1414/01) applying a preclinical MiniPET-II small animal PET device (Division of Nuclear Medicine and Translational Imaging, Department of Medical Imaging, Faculty of Medicine, University of Debrecen).
Three-dimensional ordered-subsets expectation-maximization algorithm (3D OSEM) was used for PET image reconstruction. Three-dimensional ellipsoidal volume of interests (VOI) were manually placed around the border of the organ/tissue activity to calculate their radiotracer concentration. The radiopharmaceutical accumulation was presented as standardized uptake values (SUVs). The following formula was applied for the determination of the SUV parameter:SUV (g/mL) = [VOI activity (Bq/mL)]/[administered activity (Bq)/animal weight (g)]

[4] = Ex vivo organ distribution in B16F10 tumor-bearing mice; parameters: species or system C57BL/6 mice; conditions: mouse, iv
Protocol: as §1

CCCC[C@H](NC(C)=O)C(=O)N[C@@H](CC(=O)O)C(=O)N[C@@H](Cc1c[nH]cn1)C(=O)N[C@H](Cc1ccccc1)C(=O)N[C@@H](CCCNC(=N)N)C(=O)N[C@@H](Cc1c[nH]c2ccccc12)C(=O)NCC(=O)N[C@@H](CCCCNC(=O)CN1CCN(CC(=O)O)CCN(CC(=O)O)CCN(CC(=O)O)CC1)C(N)=O [[^68Ga]Ga-DOTA-NAPamide] [metal not drawn, reference compound]
logP [1]: −3.46 | B16-F10 tumor uptake ([2]; 1.5 h): 1.18 ± 0.27 %ID/g | fat uptake ([2]; 1.5 h): 0.16 ± 0.03 %ID/g | kidney uptake ([2]; 1.5 h): 3.07 ± 0.35 %ID/g | liver uptake ([2]; 1.5 h): 0.31 ± 0.08 %ID/g | spleen uptake ([2]; 1.5 h): 0.15 ± 0.02 %ID/g

CCCC[C@H](NC(C)=O)C(=O)N[C@@H](CC(=O)O)C(=O)N[C@@H](Cc1c[nH]cn1)C(=O)N[C@H](Cc1ccccc1)C(=O)N[C@@H](CCCNC(=N)N)C(=O)N[C@@H](Cc1c[nH]c2ccccc12)C(=O)NCC(=O)N[C@@H](CCCCNC(=O)[C@H](CCCCNC(=O)CCCc1ccc(I)cc1)NC(=O)CN1CCN(CC(=O)O)CCN(CC(=O)O)CCN(CC(=O)O)CC1)C(N)=O [[^68Ga]Ga-DOTA-IPB-NAPamide, metal not drawn]
SUV at 1.5 h [3]: 1.31 ± 0.24 SUV | tissue uptake at 1.5 h ([4]; B16-F10 tumor uptake): 5.06 ± 1.08 %ID/g | tissue uptake at 1.5 h ([4]; blood uptake): 14.2 ± 1.87 %ID/g | tissue uptake at 1.5 h ([4]; brain uptake): 0.28 ± 0.02 %ID/g | tissue uptake at 1.5 h ([4]; fat uptake): 2.02 ± 0.65 %ID/g | tissue uptake at 1.5 h ([4]; heart uptake): 5.14 ± 0.72 %ID/g | tissue uptake at 1.5 h ([4]; kidney uptake): 4.57 ± 0.88 %ID/g | tissue uptake at 1.5 h ([4]; large intestine uptake): 0.92 ± 1.25 %ID/g | tissue uptake at 1.5 h ([4]; liver uptake): 2.64 ± 0.11 %ID/g | tissue uptake at 1.5 h ([4]; lung uptake): 6.32 ± 0.91 %ID/g | tissue uptake at 1.5 h ([4]; muscle uptake): 1.01 ± 0.18 %ID/g | tissue uptake at 1.5 h ([4]; small intestine uptake): 2.41 ± 0.03 %ID/g | tissue uptake at 1.5 h ([4]; spleen uptake): 2.37 ± 0.25 %ID/g | tissue uptake at 1.5 h ([4]; stomach uptake): 2.97 ± 1.38 %ID/g

CCCC[C@H](NC(C)=O)C(=O)N[C@@H](CC(=O)O)C(=O)N[C@@H](Cc1c[nH]cn1)C(=O)N[C@H](Cc1ccccc1)C(=O)N[C@@H](CCCNC(=N)N)C(=O)N[C@@H](Cc1c[nH]c2ccccc12)C(=O)NCC(=O)N[C@@H](CCCCNC(=O)CN1CCN(CC(=O)O)CCN(CC(=O)O)CCN(CC(=O)O)CC1)C(N)=O [[^177Lu]Lu-DOTA-NAPamide] [metal not drawn, reference compound]
logP [1]: −2.6 | brain uptake ([2]; 24 h): 0.00 ± 0.00 %ID/g | muscle uptake ([2]; 24 h): 0.00 ± 0.00 %ID/g

CCCC[C@H](NC(C)=O)C(=O)N[C@@H](CC(=O)O)C(=O)N[C@@H](Cc1c[nH]cn1)C(=O)N[C@H](Cc1ccccc1)C(=O)N[C@@H](CCCNC(=N)N)C(=O)N[C@@H](Cc1c[nH]c2ccccc12)C(=O)NCC(=O)N[C@@H](CCCCNC(=O)[C@H](CCCCNC(=O)CCCc1ccc(I)cc1)NC(=O)CN1CCN(CC(=O)O)CCN(CC(=O)O)CCN(CC(=O)O)CC1)C(N)=O [[^68Ga]Ga-DOTA-IPB-NAPamide] [metal not drawn]
logP [1]: −2.12

CCCC[C@H](NC(C)=O)C(=O)N[C@@H](CC(=O)O)C(=O)N[C@@H](Cc1c[nH]cn1)C(=O)N[C@H](Cc1ccccc1)C(=O)N[C@@H](CCCNC(=N)N)C(=O)N[C@@H](Cc1c[nH]c2ccccc12)C(=O)NCC(=O)N[C@@H](CCCCNC(=O)CN1CCN(CC(=O)O)CCN(CC(=O)O)CCN(CC(=O)O)CC1)C(N)=O [[^177Lu]Lu-DOTA-NAPamide, metal not drawn, reference compound]
tissue uptake at 24 h ([4]; B16-F10 tumor uptake): 0.16 ± 0.15 %ID/g | tissue uptake at 24 h ([4]; fat uptake): 0.01 ± 0.01 %ID/g | tissue uptake at 24 h ([4]; heart uptake): 0.01 %ID/g | tissue uptake at 24 h ([4]; kidney uptake): 1.85 ± 0.79 %ID/g | tissue uptake at 24 h ([4]; liver uptake): 0.24 ± 0.13 %ID/g | tissue uptake at 24 h ([4]; lung uptake): 0.04 ± 0.03 %ID/g | tissue uptake at 24 h ([4]; small intestine uptake): 0.01 ± 0.01 %ID/g | tissue uptake at 24 h ([4]; spleen uptake): 0.07 ± 0.04 %ID/g

CCCC[C@H](NC(C)=O)C(=O)N[C@@H](CC(=O)O)C(=O)N[C@@H](Cc1c[nH]cn1)C(=O)N[C@H](Cc1ccccc1)C(=O)N[C@@H](CCCNC(=N)N)C(=O)N[C@@H](Cc1c[nH]c2ccccc12)C(=O)NCC(=O)N[C@@H](CCCCNC(=O)[C@H](CCCCNC(=O)CCCc1ccc(I)cc1)NC(=O)CN1CCN(CC(=O)O)CCN(CC(=O)O)CCN(CC(=O)O)CC1)C(N)=O [[^177Lu]Lu-DOTA-IPB-NAPamide, metal not drawn]
tissue uptake at 24 h ([4]; B16-F10 tumor uptake): 4.16 ± 1.86 %ID/g | tissue uptake at 24 h ([4]; blood uptake): 3.71 ± 0.73 %ID/g | tissue uptake at 24 h ([4]; brain uptake): 0.08 ± 0.01 %ID/g | tissue uptake at 24 h ([4]; fat uptake): 0.67 ± 0.34 %ID/g | tissue uptake at 24 h ([4]; heart uptake): 1.3 ± 0.12 %ID/g | tissue uptake at 24 h ([4]; kidney uptake): 5.58 ± 1.59 %ID/g | tissue uptake at 24 h ([4]; large intestine uptake): 0.61 ± 0.11 %ID/g | tissue uptake at 24 h ([4]; liver uptake): 1.97 ± 0.13 %ID/g | tissue uptake at 24 h ([4]; lung uptake): 2.5 ± 0.24 %ID/g | tissue uptake at 24 h ([4]; muscle uptake): 0.33 ± 0.07 %ID/g | tissue uptake at 24 h ([4]; small intestine uptake): 0.6 ± 0.03 %ID/g | tissue uptake at 24 h ([4]; spleen uptake): 1.32 ± 0.2 %ID/g | tissue uptake at 24 h ([4]; stomach uptake): 0.69 ± 0.11 %ID/g

CCCC[C@H](NC(C)=O)C(=O)N[C@@H](CC(=O)O)C(=O)N[C@@H](Cc1c[nH]cn1)C(=O)N[C@H](Cc1ccccc1)C(=O)N[C@@H](CCCNC(=N)N)C(=O)N[C@@H](Cc1c[nH]c2ccccc12)C(=O)NCC(=O)N[C@@H](CCCCNC(=O)CN1CCN(CC(=O)O)CCN(CC(=O)O)CCN(CC(=O)O)CC1)C(N)=O [[^68Ga]Ga-DOTA-NAPamide, metal not drawn, reference compound]
SUV at 1.5 h [3]: 0.43 ± 0.09 SUV | tissue uptake at 1.5 h ([4]; blood uptake): 0.35 ± 0.1 %ID/g | tissue uptake at 1.5 h ([4]; brain uptake): 0.03 ± 0.01 %ID/g | tissue uptake at 1.5 h ([4]; heart uptake): 0.1 ± 0.06 %ID/g | tissue uptake at 1.5 h ([4]; large intestine uptake): 0.3 ± 0.01 %ID/g | tissue uptake at 1.5 h ([4]; lung uptake): 0.33 ± 0.06 %ID/g | tissue uptake at 1.5 h ([4]; muscle uptake): 0.08 ± 0.02 %ID/g | tissue uptake at 1.5 h ([4]; small intestine uptake): 0.35 ± 0.13 %ID/g | tissue uptake at 1.5 h ([4]; stomach uptake): 0.24 ± 0.09 %ID/g
